{"source": "paper PMC10911789", "target": "recombinant spike glycoprotein RBD from SARS-CoV-2 (BEI Resources NR-52366) (SARS-CoV-2) (UniProt P0DTC2)", "assay": "BLI"}
{"substance": "recombinant human GAPDH (glyceraldehyde-3-phosphate dehydrogenase), P04406 1-335 (enzyme; other documents disagree on this pair)", "values": [{"measurement": "Kd", "result": 11.8, "unit": "nM"}]}
